The target in test [1] is HLA-A*01:01. Nature of the test: IEDB peptide-MHC binding, purified MHC/direct/fluorescence; filed as Kd, often an IC50 or EC50 that approximates it; ≥ and ≤ were set here for values at or beyond the usual limits of such assays. As to conditions: source organism: Vibrio cholerae.
In another test the target is HLA-A*69:01. The test is described as above. To be noted: source organism: Vibrio cholerae.
The target in another test is HLA-A*02:01. Described as above. As to conditions: source organism: Vibrio cholerae.
A further test deals with HLA-B*15:01. The description is as above. As to conditions: source organism: Vibrio cholerae.
For another test, the target named is HLA-B*58:01. Described as above. To be noted: source organism: Vibrio cholerae.
Another test deals with HLA-A*03:01. Described as above. As to conditions: source organism: Vibrio cholerae.
A further test concerns the target HLA-B*27:05. The description is as above. As to conditions: source organism: Vibrio cholerae.
A further test deals with HLA-B*08:01. Described as above. To be noted: source organism: Vibrio cholerae.
A further test deals with HLA-B*40:01. The test is described as above. As to conditions: source organism: Vibrio cholerae.
Another test concerns the target HLA-A*11:01. Described as above. As to conditions: source organism: Vibrio cholerae.
The target in a further test is HLA-B*44:02. The description is as above. To be noted: source organism: Vibrio cholerae.
A further test addresses HLA-A*31:01. The description is as above. To be noted: source organism: Vibrio cholerae.
Test [2] addresses HLA-A*26:01. The description is as above. To be noted: source organism: Vibrio cholerae.
For test [3], the target named is HLA-B*07:02. The test is described as above. As to conditions: source organism: Vibrio cholerae.
The target of a further test is HLA-B*35:01. As to the kind of experiment: IEDB peptide-MHC binding, purified MHC/competitive/radioactivity; filed as Kd, often an IC50 or EC50 that approximates it; ≥ and ≤ were set here for values at or beyond the usual limits of such assays.
For a further test, the target named is HLA-B*53:01. The test is described as above.
Another test has as its target HLA-B*44:03. Described as above. To be noted: source organism: Mammarenavirus lassaense.
For the next test, the target named is HLA-B*51:01. The description is as above.
Another test concerns the target HLA-B*54:01. Described as above.
The target in test [4] is HLA-B*07:02. The description is as above.
Test [5] deals with HLA-A*01:01. Described as above. As to conditions: source organism: Vaccinia virus WR.
The next test concerns the target HLA-A*68:02. The test is described as above. As to conditions: source organism: Vaccinia virus WR.
A further test deals with HLA-A*02:06. Described as above. As to conditions: source organism: Vaccinia virus WR.
A further test has as its target HLA-A*02:02. The description is as above. To be noted: source organism: Vaccinia virus WR.
The next test deals with HLA-A*24:02. Described as above. To be noted: source organism: Vaccinia virus WR.
The target of the next test is HLA-A*29:02. Described as above. To be noted: source organism: Vaccinia virus WR.
The target of the next test is HLA-A*30:02. The test is described as above. To be noted: source organism: Vaccinia virus WR.
A further test deals with HLA-A*02:03. The test is described as above. As to conditions: source organism: Vaccinia virus WR.
The target in a further test is HLA-A*23:01. The description is as above. To be noted: source organism: Vaccinia virus WR.
Test [6] addresses HLA-A*26:01. The test is described as above. As to conditions: source organism: Vaccinia virus WR.
Setting [7] is: source organism: Mammarenavirus lassaense.
Where [8] appears, read: source organism: Vaccinia virus WR.
[9] abbreviates: source organism: Triticum aestivum.
Where [10] appears, read: source organism: SARS coronavirus Tor2.

Usually Kd stands for the equilibrium constant for the complex coming apart. Consider AEIDRSFKP, for which the Kd with HLA-A*01:01 [1], with HLA-A*69:01, with HLA-A*02:01, with HLA-B*15:01, with HLA-B*58:01 and in the test with HLA-A*03:01 was not below 20000 nM each time. Further, the Kd was not below 20000 nM with HLA-B*27:05; not below 20000 nM in the test with HLA-B*08:01; 1510 nM with HLA-B*40:01; not below 20000 nM with HLA-A*11:01; not below 20000 nM in the test with HLA-B*44:02; not below 20000 nM with HLA-A*31:01. For the same sequence, the Kd with HLA-A*26:01 [2] and with HLA-B*07:02 [3] was not below 20000 nM in each case.
CPNSYDSIM: the Kd came out at 8.12 nM with HLA-B*35:01 (setting [7]); 41.9 nM in the test with HLA-B*53:01 (setting [7]); 7570 nM in the test with HLA-B*44:03; 2270 nM with HLA-B*51:01 (setting [7]); 1590 nM with HLA-B*54:01 (setting [7]); 142 nM with HLA-B*07:02 [4] (setting [7]).
DPMVIENGI: the Kd in the test with HLA-B*35:01 (setting [8]) came out at 2360 nM; in the test with HLA-B*53:01 (setting [8]), 3860 nM; with HLA-B*51:01 (setting [8]) it was 34.6 nM; in the test with HLA-B*54:01 (setting [8]) it was 485 nM; in the test with HLA-B*07:02 [4] (setting [8]), 388 nM.
Taken in the same sequence, the figures for DPSERVFKKI were not below 69900 nM, 18200 nM, not below 46700 nM, not below 43300 nM and not below 69600 nM.
Turning to FPGDKTSYWV, the Kd turned out to be 88.8 nM with HLA-B*35:01 (setting [8]); 14.4 nM with HLA-B*53:01 (setting [8]); 50.1 nM in the test with HLA-B*51:01 (setting [8]); 5.36 nM with HLA-B*54:01 (setting [8]); 261 nM in the test with HLA-B*07:02 [4] (setting [8]).
FPGQQQPF: the equilibrium dissociation constant (Kd) with HLA-B*35:01 (setting [9]) is not below 87800 nM; with HLA-B*53:01 (setting [9]), not below 87700 nM; in the test with HLA-B*51:01 (setting [9]), not below 30600 nM; with HLA-B*54:01 (setting [9]), not below 87700 nM; with HLA-B*07:02 [4] (setting [9]), not below 37400 nM.
As for FPQAAPHGVV, the Kd in the test with HLA-B*35:01 (setting [10]) was 1680 nM; with HLA-B*53:01 (setting [10]), 4140 nM; with HLA-B*51:01 (setting [10]) it was 159 nM; with HLA-B*54:01 (setting [10]) it was 15.8 nM; with HLA-B*07:02 [4] (setting [10]), 82.2 nM.
Take FPSIFSTEV: the Kd in the test with HLA-B*35:01 (setting [7]) was found to be 97.7 nM; with HLA-B*53:01 (setting [7]), 57.3 nM; with HLA-B*51:01 (setting [7]), 330 nM; with HLA-B*54:01 (setting [7]), 4.42 nM; with HLA-B*07:02 [4] (setting [7]), 244 nM.
For KPRSQMETDF, the Kd in the test with HLA-B*35:01 (setting [10]) is 19500 nM; with HLA-B*53:01 (setting [10]), not below 53700 nM; with HLA-B*51:01 (setting [10]), 2500 nM; with HLA-B*54:01 (setting [10]) it was not below 49300 nM; with HLA-B*07:02 [4] (setting [10]), 78.8 nM.
With KPVDTSNSF, the Kd with HLA-B*35:01 (setting [10]) came out at 266 nM; with HLA-B*53:01 (setting [10]), 151 nM; with HLA-B*51:01 (setting [10]), 898 nM; with HLA-B*54:01 (setting [10]), 5770 nM; in the test with HLA-B*07:02 [4] (setting [10]), 20.7 nM.
Take KTSTLIFFV: the Kd in the test with HLA-A*01:01 [5] was 1880 nM; with HLA-A*68:02 it was 47.2 nM; in the test with HLA-B*35:01 (setting [8]) it was not below 35800 nM; in the test with HLA-A*02:06 it was 1.76 nM; with HLA-A*02:02 it was 1.38 nM; with HLA-A*24:02, 6600 nM. The dissociation constant (Kd) with HLA-B*53:01 (setting [8]) stood at 15000 nM; in the test with HLA-A*29:02, 2650 nM; in the test with HLA-A*30:02, 251 nM; with HLA-A*02:03 it was 156 nM; with HLA-A*23:01 it was 9120 nM; with HLA-B*51:01 (setting [8]), 11400 nM. The Kd in the test with HLA-B*54:01 (setting [8]) was 13800 nM; with HLA-A*26:01 [6] it was 4810 nM; in the test with HLA-B*07:02 [4] (setting [8]), not below 30500 nM.
Take LPAMCNVY: the Kd with HLA-B*35:01 (setting [9]) was 41.3 nM; with HLA-B*53:01 (setting [9]) it was 1070 nM; in the test with HLA-B*51:01 (setting [9]) it was 5760 nM; with HLA-B*54:01 (setting [9]), 2820 nM; with HLA-B*07:02 [4] (setting [9]), not below 21200 nM.
For MPICMDVRAI, the Kd with HLA-B*35:01 (setting [10]) was 94.8 nM; with HLA-B*53:01 (setting [10]) it was 5.98 nM; in the test with HLA-B*51:01 (setting [10]), 2.24 nM; with HLA-B*54:01 (setting [10]), 3.96 nM; in the test with HLA-B*07:02 [4] (setting [10]) it was 300 nM.
For MPTYKHLIMF, the Kd was found to be 20.6 nM in the test with HLA-B*35:01 (setting [8]); 18 nM with HLA-B*53:01 (setting [8]); 843 nM in the test with HLA-B*51:01 (setting [8]); 23.6 nM with HLA-B*54:01 (setting [8]); 21.8 nM with HLA-B*07:02 [4] (setting [8]).
The corresponding values for NPLFHGGEPI are 3550 nM, 312 nM, 4460 nM, 382 nM and 8.02 nM.
The corresponding values for SPYYIRKESY are 101 nM, 646 nM, not below 69600 nM, 669 nM and 65.4 nM.
WPVTLACFVL: the dissociation constant Kd is 71.5 nM in the test with HLA-B*35:01 (setting [10]); 73.8 nM with HLA-B*53:01 (setting [10]); 9.11 nM in the test with HLA-B*51:01 (setting [10]); 3560 nM in the test with HLA-B*54:01 (setting [10]); 956 nM in the test with HLA-B*07:02 [4] (setting [10]).
As to YPEYNRAVKF, the Kd in the test with HLA-B*35:01 (setting [8]) worked out at 808 nM; with HLA-B*53:01 (setting [8]), 41.7 nM; in the test with HLA-B*51:01 (setting [8]), 857 nM; with HLA-B*54:01 (setting [8]), 473 nM; in the test with HLA-B*07:02 [4] (setting [8]) it was 122 nM.
